Here are results for two molecules from patent EP4722248A1 (Shionogi & Co., Ltd, dated 2026).

For assay [1], the target named is T1, human CCR8 (human, UniProt P51685 1-355). In words: cell-based or functional assay.
In assay [2] the target is T1, human CCR8. Kind of assay: cell-based or functional assay. The source holds these as a separate data set.

T1 sequence (P51685 whole entry): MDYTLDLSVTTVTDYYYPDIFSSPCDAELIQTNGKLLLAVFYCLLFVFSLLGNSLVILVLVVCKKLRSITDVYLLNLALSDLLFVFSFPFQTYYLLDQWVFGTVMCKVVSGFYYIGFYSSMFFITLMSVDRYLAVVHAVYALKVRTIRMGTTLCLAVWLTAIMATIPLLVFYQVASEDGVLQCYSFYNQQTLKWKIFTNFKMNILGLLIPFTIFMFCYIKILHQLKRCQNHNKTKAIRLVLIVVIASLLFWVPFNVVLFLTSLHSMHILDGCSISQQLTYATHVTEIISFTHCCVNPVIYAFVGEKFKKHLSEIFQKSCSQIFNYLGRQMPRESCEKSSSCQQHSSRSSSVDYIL

B1: B6-CD3-3 (bispecific antibody)
chain: EVQLVESDGGLVQPGRSLKLSCAASGFTFSDYYMAWVRQAPTKGLEWVATITYDVYSTYYRDSVKGRFTISRDNAKSTLYLQMDSLRSEDTATYYCARHGGDGYNSGNWFAYWGQGTLVTVSSGGGGSGGGGSGGGGSDIVLTQSPALAVSLGQRATISCRASQSVSISRYNIMHWYQQKPGQQPKLLIYRASNLASGIPARFSGSGSGTDFTLTINPVQADDIATYYCQQSRESPPTFGGGTKLELKRAANASEVQLVESGGGLVQPGGSLRLSCAASGFTFSTYAMNWVRQAPGKGLEWVGRIRSKYNNYATYYADSVKGRFTISRDDSKNTLYLQMNSLRAEDTAVYYCVRHGNFGDSYVSWFAYWGQGTLVTVSSGKPGSGKPGSGKPGSGKPGSQAVVTQEPSLTVSPGGTVTLTCGSSTGAVTTSNYANWVQQKPGKSPRGLIGGTNKRAPGVPARFSGSLLGGKAALTISGAQPEDEADYYCALWYSNHWVFGGGTKLTVLHHHHHH
As to B1, in the assay with human CCR8 [1], the “EC50 of killing rate; hCCR8/FLuc/Rat-1 target cells, activated PBMC effectors, E/T 3:1” value was determined as 1.62 pM.

B2: B6-mCD3 (bispecific antibody)
chain: EVQLVESDGGLVQPGRSLKLSCAASGFTFSDYYMAWVRQAPTKGLEWVATITYDVYSTYYRDSVKGRFTISRDNAKSTLYLQMDSLRSEDTATYYCARHGGDGYNSGNWFAYWGQGTLVTVSSGGGGSGGGGSGGGGSDIVLTQSPALAVSLGQRATISCRASQSVSISRYNIMHWYQQKPGQQPKLLIYRASNLASGIPARFSGSGSGTDFTLTINPVQADDIATYYCQQSRESPPTFGGGTKLELKRAANASEVQLVESGGGLVQPGKSLKLSCEASGFTFSGYGMHWVRQAPGRGLESVAYITSSSINIKYADAVKGRFTVSRDNAKNLLFLQMNILKSEDTAMYYCARFDWDKNYWGQGTMVTVSSGGGGSGGGGSGGGGSDIQMTQSPSSLPASLGDRVTINCQASQDISNYLNWYQQKPGKAPKLLIYYTNKLADGVPSRFSGSGSGRDSSFTISSLESEDIGSYYCQQYYNYPWTFGPGTKLEIKHHHHHH
In the case of B2, the “EC50 of cytotoxic activity, luciferase; hCCR8/Fluc/Rat-1 target cells, mouse spleen-derived CD8-positive T cell effectors, antibody 10 pM-10 nM” value with human CCR8 [2] stood at 62.3 pM.
